Among the targets are CCR7 A118S (human) (UniProt P32248); CCR7 E193A (human) (UniProt P32248); CCR7 E205A (human) (UniProt P32248); CCR7 F107A (human) (UniProt P32248); CCR7 F133A (human) (UniProt P32248); CCR7 K137A (human) (UniProt P32248); CCR7 K57A (human) (UniProt P32248); CCR7 N305A (human) (UniProt P32248); CCR7 S117A (human) (UniProt P32248); CCR7 Y308A (human) (UniProt P32248); CCR7 Y65A (human) (UniProt P32248); CCR7 K50A (human) (UniProt P32248).

The target in assay [1] is CCR7 L61A (human) (UniProt P32248).
Assay [2] deals with CCR7 R209A (human) (UniProt P32248).
Assay [3] addresses CCR7 W114A (human) (UniProt P32248).
In assay [4] the target is CCR7 L61A (human) (UniProt P32248). The source holds these as a separate data set.
Assay [5] concerns the target CCR7 R209A (human) (UniProt P32248). The source holds these as a separate data set.
For assay [6], the target named is CCR7 R54A (human) (UniProt P32248).
The target of assay [7] is CCR7 W114A (human) (UniProt P32248). The source holds these as a separate data set.
Assay [8] deals with human CCR7 wild type (human) (UniProt P32248).
The target of assay [9] is CCR7 R209A (human) (UniProt P32248). The source holds these as a separate data set.
The target in assay [10] is CCR7 R54A (human) (UniProt P32248). This is another data set of the same source.
Assay [11] concerns the target human CCR7 wild type (human) (UniProt P32248). The source holds these as a separate data set.
The target is the same in assay [12]. The source holds these as a separate data set.

Where two headings read alike, the source gives them in different places.

For the molecule “human chemokine CCL21 (from UniProt O00585 24-134) (ligand)”, the G protein signaling (BRET cAMP Camyel sensor, transfected CHO-k1 cells): efficacy at 100 nM CCL21, normalized to WT CCR7 is 67 % of WT with CCR7 A118S (human); 45 % of WT with CCR7 E193A (human); 48 % of WT in the assay with CCR7 E205A (human); 76 % of WT with CCR7 F107A (human); 27 % of WT with CCR7 F133A (human); 43 % of WT in the assay with CCR7 K137A (human). Moreover, the G protein signaling (BRET cAMP Camyel sensor, transfected CHO-k1 cells): efficacy at 100 nM CCL21, normalized to WT CCR7 in the assay with CCR7 K57A (human) was 99 % of WT; with CCR7 L61A (human) [1], 44 % of WT; with CCR7 N305A (human), 53 % of WT; with CCR7 R209A (human) [2], 132 % of WT; with CCR7 S117A (human) it was 68 % of WT; with CCR7 W114A (human) [3], 32 % of WT. Further, the G protein signaling (BRET cAMP Camyel sensor, transfected CHO-k1 cells): efficacy at 100 nM CCL21, normalized to WT CCR7 in the assay with CCR7 Y308A (human) is 38 % of WT; with CCR7 Y65A (human) it was 44 % of WT. The Transwell migration of stably transfected 300–19 pre-B cells: % specific migration at 10 nM CCL21 in the assay with CCR7 L61A (human) [4] was 4%; with CCR7 R209A (human) [5], 10.6%; with CCR7 R54A (human) [6] it was 0.3%; with CCR7 W114A (human) [7] it was 0.6%; in assay [8], 5.1%. The same molecule returned a Transwell migration of stably transfected 300–19 pre-B cells: activity at 10 nM CCL21 relative to WT CCR7 in the assay with CCR7 R209A (human) [9] of 2.5 fold.

In the case of “human chemokine CCL19 (from UniProt Q99731 22-98) (ligand)”, the G protein signaling (BRET cAMP Camyel sensor, transfected CHO-k1 cells): -logEC50 (M) of CCL19 was 9.7 -logEC50 (M) with CCR7 A118S (human); 9.6 -logEC50 (M) in the assay with CCR7 E193A (human); 9.2 -logEC50 (M) with CCR7 E205A (human); 8.9 -logEC50 (M) with CCR7 F107A (human); 8.7 -logEC50 (M) with CCR7 F133A (human); 9.2 -logEC50 (M) with CCR7 K137A (human). Moreover, the G protein signaling (BRET cAMP Camyel sensor, transfected CHO-k1 cells): -logEC50 (M) of CCL19 is 8.5 -logEC50 (M) in the assay with CCR7 K50A (human); 9.2 -logEC50 (M) with CCR7 K57A (human); 8.9 -logEC50 (M) with CCR7 L61A (human) [1]; 8.6 -logEC50 (M) with CCR7 N305A (human); 8.5 -logEC50 (M) with CCR7 R209A (human) [2]; 7.1 -logEC50 (M) with CCR7 R54A (human) [10]. In addition, the G protein signaling (BRET cAMP Camyel sensor, transfected CHO-k1 cells): -logEC50 (M) of CCL19 was 9.5 -logEC50 (M) with CCR7 S117A (human), 8 -logEC50 (M) with CCR7 W114A (human) [3], 9.1 -logEC50 (M) with CCR7 Y308A (human) and 9 -logEC50 (M) in the assay with CCR7 Y65A (human). Further, the G protein signaling (BRET cAMP Camyel sensor, transfected CHO-k1 cells): FMut, fold change of CCL19 potency compared to WT CCR7 with CCR7 A118S (human) came to 2 fold; with CCR7 E193A (human) it was 3 fold; in the assay with CCR7 E205A (human) it was 3 fold; with CCR7 F107A (human), 2 fold; with CCR7 F133A (human) it was 1 fold; in the assay with CCR7 K137A (human), 3 fold. Moreover, the G protein signaling (BRET cAMP Camyel sensor, transfected CHO-k1 cells): FMut, fold change of CCL19 potency compared to WT CCR7 with CCR7 K50A (human) was 13 fold; with CCR7 K57A (human) it was 2 fold; with CCR7 L61A (human) [1], 3 fold; with CCR7 N305A (human) it was 4 fold; with CCR7 R209A (human) [2], 8 fold; with CCR7 R54A (human) [10] it was 100 fold. Further, the G protein signaling (BRET cAMP Camyel sensor, transfected CHO-k1 cells): FMut, fold change of CCL19 potency compared to WT CCR7 with CCR7 S117A (human) worked out at 1 fold; with CCR7 W114A (human) [3], 13 fold; in the assay with CCR7 Y308A (human) it was 2 fold; with CCR7 Y65A (human) it was 2 fold. Further, the Transwell migration of stably transfected 300–19 pre-B cells: % specific migration at 10 nM CCL19 was 7.5% with CCR7 L61A (human) [4]; 5% in the assay with CCR7 R209A (human) [5]; -0.1% in the assay with CCR7 R54A (human) [6]; 1% in the assay with CCR7 W114A (human) [7]; 11.6% in [8]. The G protein signaling (BRET cAMP Camyel sensor, CHO-k1 cells transfected with CCR7): logEC50 in assay [11] is -9.4 logEC50 (M). Besides, the β-arrestin-2 recruitment (bystander BRET, CHO-k1 cells transfected with CCR7): logEC50 in assay [11] was -7.9 logEC50 (M). In assay [12], this molecule returned a G protein signaling (BRET cAMP Camyel sensor, CHO-k1 cells transfected with CCR7): signal at 100 nM chemokine, normalized to CCL19 of 92%. The Transwell migration of stably transfected 300–19 pre-B cells: activity at 10 nM CCL19 relative to WT CCR7 with CCR7 R209A (human) [9] was 42 % of WT.

B1: CCL19^CCL21N-term chimera (ligand)
chain: SDGGAQDCCLKYSQRKIPGYIVRNFHYLLIKDGCRVPAVVFTTLRGRQLCAPPDQPWVERIIQRLQRTSAKMKRRSS
On to B1, for which, in assay [12], the G protein signaling (BRET cAMP Camyel sensor, CHO-k1 cells transfected with CCR7): logEC50 is -8.9 logEC50 (M) and the G protein signaling (BRET cAMP Camyel sensor, CHO-k1 cells transfected with CCR7): signal at 100 nM chemokine, normalized to CCL19 stood at 90%.

Source of the values: article PMC6753178.
